From patent EP0662514A1 come the findings set out here.

The target of assay [1] is Cathepsin G (human) (Human) (UniProt P08311). Briefly: enzyme inhibition at equilibrium, apparent Ki from fit to the tight binding inhibitor equation.
The target of assay [2] is Tissue kallikrein (porcine) (Porcine) (UniProt P00752). Described as above.
Assay [3] addresses Chymotrypsin (bovine) (Bovine) (UniProt P00766). The description is as above.
The next assay deals with Plasmin (human) (Human) (UniProt P00747). The description is as above.
UniProt P00747, sequence (P00747 97-810 limits assumed): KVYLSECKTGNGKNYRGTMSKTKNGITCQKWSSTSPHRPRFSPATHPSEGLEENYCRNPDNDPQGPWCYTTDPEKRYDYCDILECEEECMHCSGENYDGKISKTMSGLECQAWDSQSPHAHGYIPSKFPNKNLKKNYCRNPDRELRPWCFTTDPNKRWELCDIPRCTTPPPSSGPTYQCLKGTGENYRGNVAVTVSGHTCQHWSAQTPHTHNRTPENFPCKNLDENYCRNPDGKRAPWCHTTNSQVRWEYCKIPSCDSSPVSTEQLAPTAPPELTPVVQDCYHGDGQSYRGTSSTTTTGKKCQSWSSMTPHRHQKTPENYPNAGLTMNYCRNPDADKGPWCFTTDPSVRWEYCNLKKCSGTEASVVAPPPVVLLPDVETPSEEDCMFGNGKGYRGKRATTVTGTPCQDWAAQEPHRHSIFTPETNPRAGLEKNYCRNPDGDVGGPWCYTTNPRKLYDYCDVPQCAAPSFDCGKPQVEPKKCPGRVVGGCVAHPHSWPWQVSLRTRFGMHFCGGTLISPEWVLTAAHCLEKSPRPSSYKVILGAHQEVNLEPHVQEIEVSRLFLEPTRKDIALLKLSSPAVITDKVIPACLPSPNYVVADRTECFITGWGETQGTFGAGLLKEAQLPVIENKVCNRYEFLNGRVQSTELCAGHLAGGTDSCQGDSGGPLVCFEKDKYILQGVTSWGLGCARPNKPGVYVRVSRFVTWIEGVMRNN
In assay [4] the target is Trypsin (bovine) (Bovine) (UniProt P00760). The description is as above.
UniProt P00760, sequence (P00760 24-246): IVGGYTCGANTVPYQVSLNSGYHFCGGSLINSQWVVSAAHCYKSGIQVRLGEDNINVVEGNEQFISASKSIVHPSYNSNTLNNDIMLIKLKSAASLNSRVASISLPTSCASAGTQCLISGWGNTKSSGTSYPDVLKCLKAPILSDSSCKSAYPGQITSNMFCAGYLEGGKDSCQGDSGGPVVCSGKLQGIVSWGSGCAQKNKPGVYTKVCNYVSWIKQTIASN
The target of assay [5] is Chymotrypsin (bovine) (Bovine) (UniProt P00766). Briefly: cell-based or functional assay.
Assay [6] has as its target Factor Xa (human) (Human) (UniProt P00742). Briefly: cell-based or functional assay.
UniProt P00742, sequence (P00742 41-488 limits assumed): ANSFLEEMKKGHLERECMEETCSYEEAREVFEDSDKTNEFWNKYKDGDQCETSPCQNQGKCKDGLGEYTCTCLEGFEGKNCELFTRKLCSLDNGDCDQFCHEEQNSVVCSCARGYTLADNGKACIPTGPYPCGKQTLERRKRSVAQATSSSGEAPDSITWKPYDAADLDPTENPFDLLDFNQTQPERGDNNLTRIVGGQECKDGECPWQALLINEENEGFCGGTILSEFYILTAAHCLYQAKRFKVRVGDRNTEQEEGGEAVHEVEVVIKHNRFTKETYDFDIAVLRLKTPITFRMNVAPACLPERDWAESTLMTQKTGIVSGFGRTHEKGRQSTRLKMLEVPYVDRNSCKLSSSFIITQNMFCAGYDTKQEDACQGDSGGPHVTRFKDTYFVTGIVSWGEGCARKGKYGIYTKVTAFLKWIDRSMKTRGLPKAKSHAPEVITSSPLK
For assay [7], the target named is Trypsin (bovine) (Bovine) (UniProt P00760). Briefly: cell-based or functional assay.

UniProt P08311, sequence (P08311 21-244 limits assumed): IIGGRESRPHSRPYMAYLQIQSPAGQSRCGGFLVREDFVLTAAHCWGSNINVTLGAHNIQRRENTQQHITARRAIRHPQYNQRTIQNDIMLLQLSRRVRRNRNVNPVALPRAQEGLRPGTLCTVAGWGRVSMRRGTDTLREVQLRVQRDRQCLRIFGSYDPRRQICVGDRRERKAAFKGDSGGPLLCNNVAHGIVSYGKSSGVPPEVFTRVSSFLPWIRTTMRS
UniProt P00752, sequence (P00752 8-246 limits assumed): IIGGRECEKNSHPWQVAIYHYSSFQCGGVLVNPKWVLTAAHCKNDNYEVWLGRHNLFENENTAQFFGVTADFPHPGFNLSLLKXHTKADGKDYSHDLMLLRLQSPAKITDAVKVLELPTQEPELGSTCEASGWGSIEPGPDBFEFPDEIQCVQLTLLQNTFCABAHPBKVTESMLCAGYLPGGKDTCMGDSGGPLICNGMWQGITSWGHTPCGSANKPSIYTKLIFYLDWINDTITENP

For the substance hirustasin, the Ki in assay [1] was 2.9 nM; in assay [2] it was 13 nM; in assay [3], 6.4 nM; with Plasmin (human) (Human), 138 nM; in assay [4] it was 7 nM. In assay [5], this substance registered an SA [IU/mg] (specific inhibitory activity against chymotrypsin, Mono S pool) of 0.15 IU/mg. Moreover, the Partial Thromboplastin Time, hirustasin at 1.3 mM; buffer 47.3 s in assay [6] turned out to be 47.9 s. Further, the Quick (prothrombin time), hirustasin at 1.3 mM; buffer 79 % in assay [6] was 80%. Further, the SA [IU/mg] (specific inhibitory activity against trypsin, Mono S pool) in assay [7] came to 2.7 IU/mg.
